Read-outs that look alike come from different tables or passages of the source. Blank lines part the entries; values can stand above or below the binder they belong to.
What was measured:
[1] = target: T1, NHR-23 (recombinant, Strep-SUMO tag cleaved) (C. elegans, UniProt P41828 1-588); experiment: MST
T1 sequence (looked up): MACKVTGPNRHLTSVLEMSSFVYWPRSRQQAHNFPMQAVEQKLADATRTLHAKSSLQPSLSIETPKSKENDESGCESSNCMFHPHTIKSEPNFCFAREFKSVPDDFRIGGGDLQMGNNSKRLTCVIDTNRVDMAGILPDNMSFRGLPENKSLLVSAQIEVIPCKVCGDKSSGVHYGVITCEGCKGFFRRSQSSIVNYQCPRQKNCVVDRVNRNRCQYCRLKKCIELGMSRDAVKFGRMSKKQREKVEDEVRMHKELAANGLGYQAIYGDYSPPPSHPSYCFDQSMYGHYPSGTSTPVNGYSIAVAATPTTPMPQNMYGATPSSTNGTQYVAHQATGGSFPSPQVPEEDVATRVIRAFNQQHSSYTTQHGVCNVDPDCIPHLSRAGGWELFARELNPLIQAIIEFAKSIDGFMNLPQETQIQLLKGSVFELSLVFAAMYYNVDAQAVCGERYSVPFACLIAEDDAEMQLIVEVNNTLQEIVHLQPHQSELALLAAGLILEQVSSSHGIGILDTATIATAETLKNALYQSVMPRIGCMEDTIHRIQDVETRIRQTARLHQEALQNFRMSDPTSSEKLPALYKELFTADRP

NHR-23;NHR-85 [2] = target: T2, NHR-23;NHR-85 (Caenorhabditis elegans;Caenorhabditis …, UniProt P41828;Q9XUK7 1-588;1-514, |); experiment: EMSA
T2 sequence 1: T1 sequence (looked up)
T2 sequence 2: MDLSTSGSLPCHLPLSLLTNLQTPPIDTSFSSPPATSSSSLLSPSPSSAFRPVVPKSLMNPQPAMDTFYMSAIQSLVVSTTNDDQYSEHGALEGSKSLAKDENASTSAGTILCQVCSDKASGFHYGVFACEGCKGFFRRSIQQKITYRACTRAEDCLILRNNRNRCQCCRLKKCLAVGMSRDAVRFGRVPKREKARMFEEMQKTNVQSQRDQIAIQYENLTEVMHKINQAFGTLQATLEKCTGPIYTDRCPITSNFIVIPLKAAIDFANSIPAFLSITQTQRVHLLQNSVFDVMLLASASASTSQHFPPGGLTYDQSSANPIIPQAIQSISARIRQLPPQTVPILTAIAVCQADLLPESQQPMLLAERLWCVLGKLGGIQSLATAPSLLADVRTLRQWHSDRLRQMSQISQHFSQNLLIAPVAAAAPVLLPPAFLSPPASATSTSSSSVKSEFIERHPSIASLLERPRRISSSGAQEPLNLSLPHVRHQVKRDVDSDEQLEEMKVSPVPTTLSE

NHR-23;NHR-85 [3] = target: T2, NHR-23;NHR-85; experiment: EMSA; remark: listed apart in the source
NHR-23;NHR-85 [4] = target: T2, NHR-23;NHR-85; experiment: EMSA; remark: listed apart in the source

Kd [1]: 5.8 nM
B1: Strep2-NHR-85 (natural protein, C. elegans, UniProt Q9XUK7 1-514, looked up)
chain: T2 sequence 2
modifications: AlexaFluor647 NHS Ester label (in the microscale thermophoresis assay only)

B2: Mut_DR1 (dsDNA)
DNA 1: ACAAATTGACCTGTGTCGGTCAGTA
DNA 2: ACTGACCGACACAGGTCAATTTGT
binding result (NHR-23;NHR-85 [2]): no binding

B3: wtLIN-4_23_85 (PCE direct repeat, 25 bp) (dsDNA)
DNA 1: ACAAATTGAGGTCAGTCGGTCAGTA
DNA 2: TACTGACCGACTGACCTCAATTTGT
binding result (NHR-23;NHR-85 [3]): binds

B4: Proximal (25 bp) (dsDNA)
DNA 1: CGAAGCGACCGAATGACCCAGTCTC
DNA 2: GAGACTGGGTCATTCGGTCGCTTCG
binding result (NHR-23;NHR-85 [4]): binds

B5: Mut_DR2 (dsDNA)
DNA 1: ACAAATTGAGGTCAGTCCCTGTCTA
DNA 2: TAGACAGGGACTGACCTCAATTTGT
binding result (NHR-23;NHR-85 [2]): no binding
